For one test, the target named is mAb Z13e1 (human). Put plainly: ELISA.
A further test deals with T1, Z13-IL22-1 (human) (UniProt Q9GZX6).
T1 sequence: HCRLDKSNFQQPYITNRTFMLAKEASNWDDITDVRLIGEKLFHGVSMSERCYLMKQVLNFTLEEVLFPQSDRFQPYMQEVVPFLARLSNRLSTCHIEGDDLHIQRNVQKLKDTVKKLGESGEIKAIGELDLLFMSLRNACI
The test is described as follows: ITC. For orientation: Isothermal titration calorimetry measures the heat released or taken up as one component is titrated into another.

The target of test [1] is T2, Z13-IL22-2 (human, UniProt Q9GZX6, SLADNNT (64–70) replaced by residues WNWDDIT). The test is described as follows: ITC.
Test [2] concerns the target T2, Z13-IL22-2. Put plainly: ITC. This is another data set of the same source.
Test [3] addresses T2, Z13-IL22-2. Put plainly: ITC. This is another data set of the same source.
Test [4] addresses T2, Z13-IL22-2. The test is described as follows: ITC. The source holds these as a separate data set.
The next test addresses WT IL-22 (human, UniProt Q9GZX6). The test is described as follows: ELISA. (An ELISA detects its analyte on a solid surface through an enzyme-linked reagent.)
Test [5] has as its target T2, Z13-IL22-2. Put plainly: ELISA.

Read-outs that look alike come from different tables or passages of the source.

As to NWFDITNWLWYIKKKK [negative peptide control 94.1], the half-maximal inhibitory concentration (IC50) in the test with mAb Z13e1 (human) was > 5000 nM.

B1: Fab Z13e1 (Fab, V domains shown)
VH: EVQLLESGPGLLKPSETLSLTCTVSGGSMINYYWSWIRQPPGERPQWLGHIIYGGTTKYNPSLESRITISRDISKNQFSLRLNSVTAADTAIYYCARVAIGVSGFLNYYYYMDVWGSGTAVTVSS
VL: ELTQSPATLSLSPGERATLSCRASQSVGRNLGWYQQKPGQAPRLLIYDASNRATGIPARFSGSGSGTDFTLTISSLEPEDFAVYYCQARLLLPQTFGQGTKVEIK
Consider B1, for which the Kd came to 15000 nM with Z13-IL22-1 (human) and 73 nM with Z13-IL22-2 [4]. Further, the dH in the test with Z13-IL22-1 (human) was -7.47 kcal/mol; with Z13-IL22-2 [1], -7.46 kcal/mol; with Z13-IL22-2 [2], -10.8 kcal/mol; with Z13-IL22-2 [3], -13.9 kcal/mol.

B2: mAb Z13e1 (antibody, V domains shown)
VH: B1 VH
VL: B1 VL
Consider B2, for which the binding result with WT IL-22 was “no binding”. The IC50 with Z13-IL22-2 [5] is ~150 nM.

In general, IC50 refers to the midpoint of a concentration-inhibition curve. Read a low IC50 as greater potency. One may read the Kd as the concentration at which binding is half-saturated. High values mean lower affinity, low ones higher affinity.

These data come from PMC3245871 (Journal of molecular biology, 2011).
